Results reported in patent publication US20140199327A1, “METHODS OF PROMOTING DIFFERENTIATION” (Genentech, Inc., priority 2011, published 2014).

Molecular target: USP9Y-Flag (human USP9Y with C-terminal Flag epitope) (human, UniProt O00507 1-2555, limits assumed)
Test: Flag immunoprecipitation of DUBs from 293T cells cotransfected with ID2, MG-132 treated (FIG. 2B)
Method: FIG. 2. […] (A) Western blot (WB) analysis of 293T transfected with Flag-tagged deubiquitinases (DUBs) or an empty vector (−). Where indicated, cells were treated with […] MG-132 for 4 hr. (B) Flag-tagged DUBs were immunoprecipitated (IP) from 293T cells cotransfected with ID2 and treated with […] MG-132 for 6 hr.

Sequence of USP9Y-Flag (human USP9Y with C-terminal Flag epitope) (O00507 whole entry): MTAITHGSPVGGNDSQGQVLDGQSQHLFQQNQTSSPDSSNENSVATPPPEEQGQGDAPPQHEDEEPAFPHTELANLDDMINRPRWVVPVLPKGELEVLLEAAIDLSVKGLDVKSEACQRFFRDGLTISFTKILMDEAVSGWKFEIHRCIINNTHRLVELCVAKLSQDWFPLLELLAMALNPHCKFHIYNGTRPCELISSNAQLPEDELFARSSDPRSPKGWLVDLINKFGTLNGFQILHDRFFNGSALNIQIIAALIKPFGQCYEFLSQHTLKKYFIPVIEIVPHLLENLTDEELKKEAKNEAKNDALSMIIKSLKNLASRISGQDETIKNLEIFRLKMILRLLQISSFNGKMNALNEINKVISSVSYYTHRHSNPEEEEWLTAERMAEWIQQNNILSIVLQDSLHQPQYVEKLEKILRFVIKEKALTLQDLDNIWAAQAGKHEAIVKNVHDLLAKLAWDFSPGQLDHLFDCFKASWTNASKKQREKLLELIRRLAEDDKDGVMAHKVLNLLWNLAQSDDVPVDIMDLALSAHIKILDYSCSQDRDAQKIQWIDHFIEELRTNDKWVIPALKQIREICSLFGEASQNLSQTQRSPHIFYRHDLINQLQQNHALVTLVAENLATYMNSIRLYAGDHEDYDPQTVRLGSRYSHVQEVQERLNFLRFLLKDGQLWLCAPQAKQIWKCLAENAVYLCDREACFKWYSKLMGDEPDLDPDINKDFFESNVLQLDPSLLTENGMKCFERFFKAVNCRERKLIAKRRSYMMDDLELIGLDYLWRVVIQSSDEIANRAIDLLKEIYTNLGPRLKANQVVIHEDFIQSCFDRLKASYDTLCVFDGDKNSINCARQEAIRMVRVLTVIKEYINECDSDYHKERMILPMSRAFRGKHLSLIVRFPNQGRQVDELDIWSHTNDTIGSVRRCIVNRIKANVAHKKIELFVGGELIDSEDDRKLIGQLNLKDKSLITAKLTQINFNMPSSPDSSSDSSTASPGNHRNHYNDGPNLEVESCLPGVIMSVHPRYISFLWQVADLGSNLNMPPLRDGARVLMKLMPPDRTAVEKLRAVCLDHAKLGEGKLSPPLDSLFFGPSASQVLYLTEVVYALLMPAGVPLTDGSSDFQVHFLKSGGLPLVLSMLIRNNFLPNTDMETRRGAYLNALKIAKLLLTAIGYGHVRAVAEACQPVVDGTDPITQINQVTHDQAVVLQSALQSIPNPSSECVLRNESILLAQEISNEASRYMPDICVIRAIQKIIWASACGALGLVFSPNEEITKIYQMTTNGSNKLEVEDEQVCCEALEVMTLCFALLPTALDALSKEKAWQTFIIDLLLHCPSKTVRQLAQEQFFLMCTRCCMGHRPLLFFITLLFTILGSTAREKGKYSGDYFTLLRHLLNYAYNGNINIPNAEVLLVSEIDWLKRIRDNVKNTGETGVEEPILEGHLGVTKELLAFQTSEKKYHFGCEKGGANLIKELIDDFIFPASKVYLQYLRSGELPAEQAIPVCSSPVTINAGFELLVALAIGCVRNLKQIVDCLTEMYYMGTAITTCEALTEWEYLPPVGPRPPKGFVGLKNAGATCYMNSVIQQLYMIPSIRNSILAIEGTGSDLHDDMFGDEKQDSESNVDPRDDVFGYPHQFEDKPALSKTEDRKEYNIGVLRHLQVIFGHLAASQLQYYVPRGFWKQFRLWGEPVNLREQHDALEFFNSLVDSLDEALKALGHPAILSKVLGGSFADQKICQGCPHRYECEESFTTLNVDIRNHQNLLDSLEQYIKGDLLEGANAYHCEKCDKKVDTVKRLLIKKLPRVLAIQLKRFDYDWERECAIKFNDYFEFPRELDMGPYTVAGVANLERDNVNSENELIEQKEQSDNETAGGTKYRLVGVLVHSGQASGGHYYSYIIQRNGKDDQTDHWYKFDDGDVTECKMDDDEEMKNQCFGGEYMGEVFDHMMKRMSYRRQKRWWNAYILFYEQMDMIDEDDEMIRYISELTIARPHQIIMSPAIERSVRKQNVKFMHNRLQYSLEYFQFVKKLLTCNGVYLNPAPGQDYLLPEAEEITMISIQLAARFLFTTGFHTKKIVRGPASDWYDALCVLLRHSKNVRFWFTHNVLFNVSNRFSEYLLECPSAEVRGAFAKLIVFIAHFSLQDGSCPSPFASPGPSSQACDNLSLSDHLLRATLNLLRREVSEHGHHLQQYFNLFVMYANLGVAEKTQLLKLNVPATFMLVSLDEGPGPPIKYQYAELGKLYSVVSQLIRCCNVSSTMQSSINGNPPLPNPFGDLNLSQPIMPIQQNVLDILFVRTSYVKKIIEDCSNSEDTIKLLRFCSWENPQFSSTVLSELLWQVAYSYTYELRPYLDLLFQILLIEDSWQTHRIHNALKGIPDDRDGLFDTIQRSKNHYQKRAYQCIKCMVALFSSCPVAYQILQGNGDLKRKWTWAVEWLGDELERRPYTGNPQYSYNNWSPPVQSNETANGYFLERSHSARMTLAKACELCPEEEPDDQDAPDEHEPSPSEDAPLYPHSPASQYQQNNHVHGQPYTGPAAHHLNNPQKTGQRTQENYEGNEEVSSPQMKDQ

binding result: no binding
B1: ID2 (co-transfected / co-expressed in 293T cells) (other)
chain: MKAFSPVRSVRKNSLSDHSLGISRSKTPVDDPMSLLYNMNDCYSKLKELVPSIPQNKKVSKMEILQHVIDYILDLQIALDSHPTIVSLHHQRPGQNQASRTPLTTLNTDISILSLQASEFPSELMSNDSKALCG
notes: ID2 was amplified from Jurkat-derived cDNA; The methods describe only a C-terminal Flag version in pRK2001
